The values that follow come from patent publication US9304127B2, “Anti-adrenomedullin (ADM) antibody or anti-ADM antibody fragment for use in therapy” (ADRENOMED AG, priority 2011, dated 2016).

The experiment addresses T1, hADM (Homo sapiens, UniProt P35318).
T1 construct: comprises the amino acids 95 to 146 of pre-proADM; host or cells: added to human citrate plasma
T1 sequence (P35318 95-146): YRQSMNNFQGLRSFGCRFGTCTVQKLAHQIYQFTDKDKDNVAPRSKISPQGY
The experiment in a line: Stability of human Adrenomedullin in human citrate plasma (hADM immunoassay). The following applies: 24° C., hADM 10 nM, NT-H 100 μg/ml. The class given is in vitro ADME.

Method: The stabilizing effect of human ADM by human ADM antibodies was tested using a hADM immunoassay.
The technology used was a sandwich coated tube luminescence immunoassay, based on Acridinium ester labelling.
The final concentration was approx. 800.000 relative light units (RLU) of labelled compound (approx. 20 ng labeled antibody) per 200 μL.
After blocking with 5% bovine serum albumine, the tubes were washed with PBS, pH 7.4 and vacuum dried.
The assay was calibrated, using dilutions of hADM
(BACHEM AG, Switzerland) in 250 mmol/L NaCl, 2 g/L Triton X-100, 50 g/L Bovine Serum Albumin, 20 tabs/L Protease Inhibitor Cocktail (Roche Diagnostics AG, Switzerland))
Unbound tracer was removed by washing 5 times (each 1 ml) with washing solution (20 mM PBS, pH 7.4, 0.1% Triton X-100).
Human ADM was diluted in human Citrate plasma (final concentration 10 nM) and incubated at 24° C. At selected time points, the degradation of hADM was stopped by freezing at −20° C. […] The remaining hADM was quantified by using the hADM immunoassay described above.

B1: NT-H: murine monoclonal antibody raised against human ADM region 1-21 (SEQ ID: 15) (antibody, V domains shown)
VH: QVQLQQSGAELMKPGASVKISCKATGYTFSRYWIEWVKQRPGHGLEWIGEILPGSGSTNYNEKFKGKATITADTSSNTAYMQLSSLTSEDSAVYYCTEGYEYDGFDYWGQGTTLTVSS
VL: DVLLSQTPLSLPVSLGDQATISCRSSQSIVYSNGNTYLEWYLQKPGQSPKLLIYRVSNRFSGVPDRFSGSGSGTDFTLKISRVEAEDLGVYYCFQGSHIPYTFGGGTKLEIK
Regarding B1, the “half life of hADM in the presence of NT-H” value was determined as 18.3 h.
